Source: article PMC3962721

Key:
[1] = molecular target: T1, DDB2 (FLAG-tagged, in DDB.com);DDB1;Cul4A;Roc1 (Homo sapiens?;Homo sapiens?;Homo …, UniProt Q92466;Q16531;Q13619;P62877 1-427;1-1140;1-759;1-108, |||); test: competition
[2] = molecular target: T1, DDB2 (FLAG-tagged, in …); test: EMSA
[3] = molecular target: T1, DDB2 (FLAG-tagged, in …); test: EMSA; remark: listed apart in the source
[4] = molecular target: T1, DDB2 (FLAG-tagged, in …); test: competition; remark: listed apart in the source

T1 sequence (Q92466 whole entry, chain 1 of 4): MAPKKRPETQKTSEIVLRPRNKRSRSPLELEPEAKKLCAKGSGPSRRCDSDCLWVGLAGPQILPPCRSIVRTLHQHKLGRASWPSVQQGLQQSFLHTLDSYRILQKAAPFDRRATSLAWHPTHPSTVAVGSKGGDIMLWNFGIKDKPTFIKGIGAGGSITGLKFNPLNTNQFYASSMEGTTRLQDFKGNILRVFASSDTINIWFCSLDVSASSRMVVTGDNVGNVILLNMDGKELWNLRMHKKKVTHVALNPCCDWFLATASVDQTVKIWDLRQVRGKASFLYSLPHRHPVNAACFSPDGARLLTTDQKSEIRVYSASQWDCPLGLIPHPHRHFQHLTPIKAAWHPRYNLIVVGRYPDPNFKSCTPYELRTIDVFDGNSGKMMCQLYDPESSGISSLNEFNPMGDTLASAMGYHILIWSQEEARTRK
T1 sequence (Q16531 whole entry, chain 2 of 4): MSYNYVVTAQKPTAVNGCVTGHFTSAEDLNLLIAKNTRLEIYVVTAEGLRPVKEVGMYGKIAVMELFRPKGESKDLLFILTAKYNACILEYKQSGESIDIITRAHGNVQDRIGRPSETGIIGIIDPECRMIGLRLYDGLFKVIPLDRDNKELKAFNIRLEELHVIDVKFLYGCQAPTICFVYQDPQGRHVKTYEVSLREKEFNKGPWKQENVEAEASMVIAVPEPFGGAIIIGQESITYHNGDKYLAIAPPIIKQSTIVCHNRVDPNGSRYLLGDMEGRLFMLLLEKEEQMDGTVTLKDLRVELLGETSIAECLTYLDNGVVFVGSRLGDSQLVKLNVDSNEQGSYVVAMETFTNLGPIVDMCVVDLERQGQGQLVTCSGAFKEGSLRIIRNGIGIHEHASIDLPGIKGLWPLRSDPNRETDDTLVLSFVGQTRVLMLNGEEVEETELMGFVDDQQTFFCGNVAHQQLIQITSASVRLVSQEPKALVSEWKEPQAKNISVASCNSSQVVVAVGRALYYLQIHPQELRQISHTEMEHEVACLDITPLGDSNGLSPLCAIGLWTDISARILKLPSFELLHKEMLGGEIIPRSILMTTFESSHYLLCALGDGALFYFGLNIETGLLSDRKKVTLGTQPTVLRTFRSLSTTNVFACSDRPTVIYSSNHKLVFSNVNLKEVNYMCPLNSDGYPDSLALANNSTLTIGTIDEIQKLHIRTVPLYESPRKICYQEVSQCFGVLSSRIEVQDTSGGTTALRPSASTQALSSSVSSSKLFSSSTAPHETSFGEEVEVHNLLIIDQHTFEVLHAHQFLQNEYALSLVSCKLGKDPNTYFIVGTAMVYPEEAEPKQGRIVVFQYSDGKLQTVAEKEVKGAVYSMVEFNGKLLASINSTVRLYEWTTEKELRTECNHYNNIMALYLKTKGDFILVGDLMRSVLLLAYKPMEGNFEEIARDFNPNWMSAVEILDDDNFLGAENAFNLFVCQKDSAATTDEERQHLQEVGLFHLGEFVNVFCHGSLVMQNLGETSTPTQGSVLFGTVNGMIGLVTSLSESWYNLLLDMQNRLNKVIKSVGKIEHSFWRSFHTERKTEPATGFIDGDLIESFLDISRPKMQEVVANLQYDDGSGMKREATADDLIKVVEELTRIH
T1 sequence (Q13619 whole entry, chain 3 of 4): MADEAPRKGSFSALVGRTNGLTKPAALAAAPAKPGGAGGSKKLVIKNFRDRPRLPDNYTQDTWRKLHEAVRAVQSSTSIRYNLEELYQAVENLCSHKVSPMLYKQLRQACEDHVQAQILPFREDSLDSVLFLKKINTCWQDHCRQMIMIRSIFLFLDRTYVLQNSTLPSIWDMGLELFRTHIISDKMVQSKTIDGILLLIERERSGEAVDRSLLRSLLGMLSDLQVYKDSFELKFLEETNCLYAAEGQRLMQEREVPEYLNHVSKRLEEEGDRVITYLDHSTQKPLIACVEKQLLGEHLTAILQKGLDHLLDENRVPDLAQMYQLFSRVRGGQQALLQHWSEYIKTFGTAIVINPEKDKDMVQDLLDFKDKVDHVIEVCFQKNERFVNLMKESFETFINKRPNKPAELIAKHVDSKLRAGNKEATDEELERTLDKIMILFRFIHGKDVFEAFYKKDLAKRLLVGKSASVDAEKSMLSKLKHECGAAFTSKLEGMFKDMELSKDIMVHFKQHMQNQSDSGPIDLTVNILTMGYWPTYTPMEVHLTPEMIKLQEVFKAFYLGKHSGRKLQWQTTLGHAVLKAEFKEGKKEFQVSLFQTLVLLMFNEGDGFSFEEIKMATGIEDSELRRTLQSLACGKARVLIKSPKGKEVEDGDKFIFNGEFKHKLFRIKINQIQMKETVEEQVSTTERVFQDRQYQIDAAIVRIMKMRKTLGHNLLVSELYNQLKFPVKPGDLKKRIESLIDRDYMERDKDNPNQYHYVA
T1 sequence (P62877 whole entry, chain 4 of 4): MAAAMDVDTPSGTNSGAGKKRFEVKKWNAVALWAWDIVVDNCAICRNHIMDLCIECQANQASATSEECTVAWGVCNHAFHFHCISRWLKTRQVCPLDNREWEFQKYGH

B1: Ow (unlabeled wild-type BCP1 competitor) (dsDNA)
DNA 1: ATTAGGAGCTTGAAGCCTTTCAAT
DNA 2: ATTGAAAGGCTTCAAGCTCCTAAT
B1: binds [1].

B2: Bcl-2 probe (BCP1) (dsDNA)
DNA 1: ATTAGGAGCTTGAAGCCTTTCAAT
DNA 2: ATTGAAAGGCTTCAAGCTCCTAAT
B2: binds [2].

B3: MnSOD probe (dsDNA)
DNA 1: GAGGCTAGCCTGCAGCCTCCTTTCTCC
DNA 2: GGAGAAAGGAGGCTGCAGGCTAGCCTC
B3: binds [3].

B4: Om (unlabeled mutant BCP1 competitor) (dsDNA)
DNA 1: ATTAGGATATTGAAGCCTTTCAAT
DNA 2: ATTGAAAGGCTTCAATATCCTAAT
B4: no binding [4].
